From publication PMC11399303, “Recombinant expression and characterization of the endochitinase Chit36-TA from Trichoderma asperellum in Komagataella phaffii for chitin degradation of black soldier fly exuviae” (Bioprocess and Biosystems Engineering, 2024)

Substrate: CC(=O)N[C@H]1[C@H](Oc2ccc3c(C)cc(=O)oc3c2)O[C@H](CO)[C@@H](O[C@@H]2O[C@H](CO)[C@@H](O[C@@H]3O[C@H](CO)[C@@H](O)[C@H](O)[C@H]3NC(C)=O)[C@H](O)[C@H]2NC(C)=O)[C@@H]1O
Assay: fluorometric 4-methylumbelliferone release, nonlinear regression
Assay type: biochemical, Trichoderma asperellum
Conditions: 50 mM sodium acetate, pH 4.5, 40 °C, 5-70 µM substrate
From the text: fluorometric 4-methylumbelliferone release, nonlinear regression on Chit36-TA

B1: Chit36-TA (Trichoderma asperellum CBS 433.97) (protein)
chain: QNATCALKGKPAGKVLMGYWENWDGAANGVHPGFGWTPIENPIIKQNGYNVINAAFPVILSDGTALWENDMAPDTQVATPAEMCEAKAAGATILLSIGGATAGIDLSSSAVADKFIATIVPILKQYNFDGIDIDIETGLTNSGNINTLSTSQTNLIRIIDGVLAQMPSNFGLTMAPETAYVTGGSITYGSIWGAYLPIIQKYVQNGRLWWLNMQYYNGDMYGCSGDSYAAGTVQGFIAQTDCLNAGLTIQGTTIKVPYDMQVPGLPAQSGAGGGYMNPSLVGQAWDHYNGALKGLMTWSINWDGAGNWTFGDNLLTRIG
notes: mature protein without native signal peptide, C-terminal His6 (kept), codon-optimized synthetic gene, secreted from Komagataella phaffii BG10, Ni-NTA purified, N-glycosylated (43 kDa)
Km: 289 µM | Vmax: 3 µmol/min/mg
